Data published in patent CN117999283A (INST BASIC SCIENCE; KOREA ADVANCED INST SCI & TECH, dated 2024).

B1: hTAAB (hTie2活化小鼠单克隆抗体, 小鼠IgG1) (antibody, V domains shown)
VH: QVQLQQPGAELVRPGASVKLSCKASGYSFTSYWMNWVKQRPGQGLEWIGMIHPSDSETRLNQKFMDKATLTVDKSSSTAYMQLSSPTSEDSAVYYCARGLYGNSWGQGTLVTVSA
VL: DIQMTQSPSSLSASLGERVSLTCRASQDIGISLNWLQQEPDGTIKRLIYATSSLDSGVPKRFSGSRSGSDYSLTISSLESEDFVDYYCLQYASSPYTFGGGTKLEIK
notes: Mouse IgG1 from a hybridoma; also called 小鼠hTAAB; 亲本hTAAB
B2: 人Tie2 ECD (人Tie2的第23-735位残基) (receptor, human, UniProt Q02763 23-735, looked up)
chain: AMDLILINSLPLVSDAETSLTCIASGWRPHEPITIGRDFEALMNQHQDPLEVTQDVTREWAKKVVWKREKASKINGAYFCEGRVRGEAIRIRTMKMRQQASFLPATLTMTVDKGDNVNISFKKVLIKEEDAVIYKNGSFIHSVPRHEVPDILEVHLPHAQPQDAGVYSARYIGGNLFTSAFTRLIVRRCEAQKWGPECNHLCTACMNNGVCHEDTGECICPPGFMGRTCEKACELHTFGRTCKERCSGQEGCKSYVFCLPDPYGCSCATGWKGLQCNEACHPGFYGPDCKLRCSCNNGEMCDRFQGCLCSPGWQGLQCEREGIQRMTPKIVDLPDHIEVNSGKFNPICKASGWPLPTNEEMTLVKPDGTVLHPKDFNHTDHFSVAIFTIHRILPPDSGVWVCSVNTVAGMVEKPFNISVKVLPKPLNAPNVIDTGHNFAVINISSEPYFGDGPIKSKKLLYKPVNHYEAWQHIQVTNEIVTLNYLEPRTEYELCVQLVRRGEGGEGHPGPVRRFTTASIGLPPPRGLNLLPKSQTTLNLTWQPIFPSSEDDFYVEVERRSVQKSDQQNIKVPGNLTSVLLNNLHPREQYVVRARVNTKAQGEWSEDLTAWTLSDILPPQPENIKISNITHSSAVISWTILDGYSISSITIRYKVQGKNEDQHVDVKIKNATITQYQLKGLEPETAYQVDIFAENNIGSSNPAFSHELVTLPES
notes: range 23-735; The construct is defined on GenBank AAH35514.2; Tags are not described; also called hTie2 ECD

Columns and labels:
[1] = target: B2; test: SPR (Biacore T200): hTie2 ECD amine-coupled on CM5, IgG as analyte at 0-64 nM, 1:1 model
[2] = target: the molecule itself; test: SEC-MALS; self-association in solution

Kd [1] [nM] | koff [1] [s⁻¹] | kon [1] [M⁻¹ s⁻¹] | Binder | binding result [2]
4.2 | 0.0006 | 140000 | B1 | 
 |  |  | B2 | no binding (tested: 1mg/ml)
